Two substances from article PMC5467389 can be followed below.

The target of assay [1] is HA-tagged spinophilin (human) (UniProt Q96SB3). The assay can be described thus: co-IP; HEK293 cells co-transfected with HA-spinophilin, V5-NF-M and kinase dead K72H myc-PKAc; low-ionic Tris buffer with 1% Triton X-100; HA or V5 immunoprecipitation, immunoblot.
Another assay addresses PP1. In words: spinophilin IP, spectral counting by MS. Particulars: reference: intact (contralateral) striatum; sites S17,S100.

Sequence of UniProt Q96SB3 (Q96SB3 whole entry): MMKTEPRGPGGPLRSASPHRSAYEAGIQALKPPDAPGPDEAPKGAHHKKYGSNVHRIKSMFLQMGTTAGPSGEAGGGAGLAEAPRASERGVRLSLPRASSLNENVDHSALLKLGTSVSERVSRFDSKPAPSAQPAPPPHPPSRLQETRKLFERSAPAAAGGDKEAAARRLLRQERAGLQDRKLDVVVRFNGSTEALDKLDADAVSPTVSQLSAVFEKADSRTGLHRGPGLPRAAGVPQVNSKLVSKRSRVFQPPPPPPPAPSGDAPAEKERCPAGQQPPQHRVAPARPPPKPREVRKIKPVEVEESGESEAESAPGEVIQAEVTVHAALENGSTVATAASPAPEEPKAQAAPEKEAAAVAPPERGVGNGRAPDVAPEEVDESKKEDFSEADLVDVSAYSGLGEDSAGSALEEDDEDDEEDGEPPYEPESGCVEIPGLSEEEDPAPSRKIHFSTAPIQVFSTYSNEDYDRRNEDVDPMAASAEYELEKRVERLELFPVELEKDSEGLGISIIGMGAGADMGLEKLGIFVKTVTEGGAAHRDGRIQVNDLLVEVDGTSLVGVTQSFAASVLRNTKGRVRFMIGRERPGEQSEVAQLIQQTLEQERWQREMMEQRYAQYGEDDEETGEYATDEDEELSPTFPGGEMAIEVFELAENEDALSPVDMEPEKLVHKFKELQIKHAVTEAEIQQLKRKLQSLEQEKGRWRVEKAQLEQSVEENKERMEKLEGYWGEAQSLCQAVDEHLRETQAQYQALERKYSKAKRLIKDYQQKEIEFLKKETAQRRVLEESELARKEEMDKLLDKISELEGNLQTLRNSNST
Sequence of spinophilin (Q6R891 whole entry, looked up, change not shown): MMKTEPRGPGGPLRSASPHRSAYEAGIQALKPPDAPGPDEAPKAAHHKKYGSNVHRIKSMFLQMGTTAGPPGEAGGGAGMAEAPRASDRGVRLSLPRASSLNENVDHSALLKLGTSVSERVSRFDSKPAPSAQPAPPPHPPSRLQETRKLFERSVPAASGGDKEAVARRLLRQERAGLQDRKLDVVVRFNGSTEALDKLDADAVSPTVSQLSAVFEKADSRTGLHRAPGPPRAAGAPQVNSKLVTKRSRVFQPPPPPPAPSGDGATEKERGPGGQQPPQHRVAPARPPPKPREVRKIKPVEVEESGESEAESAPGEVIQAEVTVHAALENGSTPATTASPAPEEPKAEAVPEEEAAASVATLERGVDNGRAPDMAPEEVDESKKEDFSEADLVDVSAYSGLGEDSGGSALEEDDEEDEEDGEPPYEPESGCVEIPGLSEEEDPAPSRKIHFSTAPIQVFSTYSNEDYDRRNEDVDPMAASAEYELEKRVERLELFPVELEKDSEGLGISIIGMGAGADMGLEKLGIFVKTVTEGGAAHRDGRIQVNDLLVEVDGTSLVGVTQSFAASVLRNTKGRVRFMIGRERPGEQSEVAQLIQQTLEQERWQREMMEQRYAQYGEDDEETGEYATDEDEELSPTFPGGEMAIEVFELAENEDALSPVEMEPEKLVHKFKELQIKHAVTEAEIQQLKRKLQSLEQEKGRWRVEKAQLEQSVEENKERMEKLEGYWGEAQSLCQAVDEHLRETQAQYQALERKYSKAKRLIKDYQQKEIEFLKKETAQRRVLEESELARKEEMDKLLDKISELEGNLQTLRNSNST

Consider “kinase dead (K72H mutant) myc-tagged PKAc (enzyme)”, for which the percent reduction of the association against wild type PKAc in assay [1] was 63%.
The substance “spinophilin (from UniProt Q6R891) 6-OHDA-lesioned (ipsilateral) striatum” displayed an other: percent increase over reference in the assay with PP1 of 28%.
